Measured values taken from article PMC3690481.

Legend:
Lys63-linked diUb = Lys63-linked diUb (UniProt P0CG48); experiment: fluorescence polarisation; FlAsH-tagged diUb fixed (10 μl of 100 nM plus 10 μl protein), OTULIN C129A variants serially diluted; 20 mM Tris pH 7.4, 100 mM NaCl, 5 mM β-mercaptoethanol, 0.1 mg/ml BSA; one-site binding model; triplicate
[1] = target: FlAsH-tagged Met1-diUb E16A^prox (UniProt P0CG48); experiment: fluorescence anisotropy

Row | Substance | Kd (Lys63-linked diUb) [µM] | Kd [1] [µM]
1 | OTULIN (1–352) C129A (from UniProt Q96BN8 1-352) (enzyme) | 12 | –
2 | m1; m3 OTULIN:N341D; proximal Ub:E16A | – | 0.117
